Measurements from patent publication US20180079804A1.

T1: Tau(pS422) fragment SEQ ID NO: 03 (human)
T1 sequence (peptide, phosphoserine at position 7 (position 422 of SEQ ID NO, 01)): SIDMVDXPQLATLAD


Tests used:
[1] = molecular target: T1, Tau(pS422) fragment SEQ ID NO: 03 (human); test: ELISA
[2] = molecular target: T1, Tau(pS422) fragment SEQ ID NO: 03 (human); test: SPR capture assay (Example 10), 25 C

EC50 [1] [µg/mL] | Kd [2] [nM] | koff [2] [s⁻¹] | kon [2] [M⁻¹ s⁻¹] | Binder
0.0403 | 2.61 | 0.000628 | 240000 | VH76A6/VL145B12 (antibody, V domains shown) VH: EVQVLESGGGLVQPGGSLRLSCAVSGFSLSNSAINWVRQAPGKGLEWVGYIAVSGNTYYASWAKGRFTISRDNSKNTVYLQMNSLRAEDTAVYYCGKSNIWGQGTLVTVSS VL: AQVMTQSPSSLSASVGDRVTITCRSSQSVRSNKLAWFQQKPGQPPKRLIYAASNLDFGVPSRFSGSGSGTEFTLTISSLQPEDFATYYCLGYFDSSADIVAFGGGTKVEIK
0.04 | 1.96 | 0.000265 | 135000 | VH00/VL00 (antibody, V domains shown) VH: QSVEESGGRLVTPGTPLTLTCTVSGFSLSSNAINWVRQAPGKGLEWIGYIAVSGNTYYASWAKGRFTISKASTTVDLKMTSPTAEDTGTYFCGKSNIWGPGTLVTVSL VL: AQVLTQTTSPVSAAVGSTVTISCQSSQSVRTNKLAWFQQKPGQPPKRLIYSASTLDFGVPSRFSASGSGTQFTLTISDVQCDDAATYYCLGYFDCSIADCVAFGGGTEVVVK
